Assay results from article PMC3034293 (Biochemistry, 2011).

Biological target: the molecule itself
Assay: SEC

B1: Wild-type aldolase B (enzyme, human, UniProt P05062 1-364, looked up)
chain: MAHRFPALTQEQKKELSEIAQSIVANGKGILAADESVGTMGNRLQRIKVENTEENRRQFREILFSVDSSINQSIGGVILFHETLYQKDSQGKLFRNILKEKGIVVGIKLDQGGAPLAGTNKETTIQGLDGLSERCAQYKKDGVDFGKWRAVLRIADQCPSSLAIQENANALARYASICQQNGLVPIVEPEVIPDGDHDLEHCQYVTEKVLAAVYKALNDHHVYLEGTLLKPNMVTAGHACTKKYTPEQVAMATVTALHRTVPAAVPGICFLSGGMSEEDATLNLNAINLCPLPKPWKLSFSYGRALQASALAAWGGKAANKEATQEAFMKRAMANCQAAKGQYVHTGSSGAASTQSLFTACYTY
  stoichiometry N: 4
